Laboratory results reported in patent US20180245061A1, “Modified Heterocyclase” (THE UNIVERSITY COURT OF THE UNIVERSITY OF ABERDEEN, priority 2014, published 2018).
Where no end group is shown, it is not given here.

How the values were obtained:
LynD = test: Trans activation of LynD by exogenous leader peptide (turnover of test peptide ITACITFCAYDG); assay type: biochemical, Lyngbya sp.; details: for acceleration of turnover of the test peptide by LynD: 5.5 μM leader peptide in trans, 5 μM LynD, 100 μM ITACITFCAYDG; for heterocycles observed in test peptide with LynD plus leader in trans: overnight incubation
Description: (§1) For all heterocyclization reactions, […] PatE′ (and variants,) was incubated with 2 μM enzyme in 150 mM NaCl, 10 mM HEPES pH 7.4, 1 mM TCEP, 5 mM ATP and 5 mM MgCl2 for 16 h at 37° C. Samples were analyzed by ESI or MALDI MS (LCT, Micromass or 4800 MALDI TOF/TOF Analyzer, ABSciex). For cis trans activation studies, 100 μM ITACITFCAYDG synthetic test peptide (Peptide Protein Research Ltd) was reacted with 5 μM heterocyclase enzyme in the presence and absence of 5.5 μM LAELSEEAL synthetic peptide, or 5.5 μM full-length PatE′4 leader peptide. The reaction was carried out in 150 mM NaCl, 10 mM HEPES pH 7.4, 1 mM TCEP, 5 mM ATP and 5 mM MgCl2 for 16 h at 37° C. and analyzed as above. Synthetic peptides were purchased from Peptide Protein Research Ltd.
To assess the relative rates of heterocyclization under various conditions, heterocyclization reactions were monitored at regular intervals using MALDI TOF MS. In each case, reactions of PatE′ or ITACITFCAYDG synthetic peptide were prepared as described and incubated at 37° C. prior to addition of LynD allowing a 0 time-point to be recorded. Time points for each reaction were recorded as follows: For PatE′ with LynD (standard conditions), PatE′ with LynD in the presence of α-β-methelene ATP, and ITACITFCAYDG with LynD fusion, the reaction was monitored after 1, 5, 10, 15, 20, 30, 45, 60, 90, 120 and 180 minutes; For ITACITFCAYDG with LynD in the absence, and presence of either minimal leader LAELSEEAL peptide, or full length PatE′4 leader peptide, the reaction was monitored after 15, 30, 60, 120, 240 and 1440 minutes. Reactions were set up in triplicate, and each sample was analyzed by MALDI TOF MS in triplicate (9 spectra recorded in total for each reaction at each time point). For each time point, the total ion count for each species (0, 1 and 2 heterocycles) was recorded, averaged and the percentage of each species was calculated. The rate of each reaction relative to the wild-type reaction (PatE′+LynD) was determined. LC-MS of reaction mixtures was performed on a Waters LC-MS system (LCT mass spectrometer and 2795 HPLC) using a Waters MassPrep column (2.1×10 mm). Solvent B was 0.1% formic acid and Solvent A was MeCN containing 0.1% formic acid. Gradient 0-0.5 min 98% B, 0.5-2.5 min linear to 2% B, 2.5-4.5 min 2% B, 4.5-4.6 min linear to 98% B, […] 98% B at 0.05 ml min−1. The following conditions were used on the mass spectrometer: ESI +ve, capillary voltage 3.5 kV, cone voltage 40 V, mass range 500-2500 m/z, RF lens 500. The spectra were combined across the eluted protein peak and the charged ion series processed using Water's MaxEnt algorithm to give protein mass, using peak width at half height on the strongest peak in the ion envelope. […]

[1] = system: ITACITFCAYDG synthetic test peptide; test: Heterocyclization of leaderless core/test peptide ITACITFCAYDG (LCMS, MALDI TOF MS time course); assay type: biochemical; details: for heterocycles formed in core peptide ITACITFCAYDG: no leader
Description: After 16 h core peptide incubated with either TruD or LynD only 1 heterocycle is formed. In contrast when incubated with LynD fusion, the heterocyclization reaction is nearly complete—the sample containing predominantly 2 heterocycles after just 2 h. PatE′ and LynD reaction after 2 h is shown as a reference.
as §1, with “Synthetic peptides were purchased from Peptide Protein Research Ltd.” left out
To assess the relative rates of heterocyclization under various conditions, heterocyclization reactions were monitored at regular intervals using MALDI TOF MS. In each case, reactions of PatE′ or ITACITFCAYDG synthetic peptide were prepared as described and incubated at 37° C. prior to addition of LynD allowing a 0 time-point to be recorded. Time points for each reaction were recorded as follows: For PatE′ with LynD (standard conditions), PatE′ with LynD in the presence of α-β-methelene ATP, and ITACITFCAYDG with LynD fusion, the reaction was monitored after 1, 5, 10, 15, 20, 30, 45, 60, 90, 120 and 180 minutes; For ITACITFCAYDG with LynD in the absence, and presence of either minimal leader LAELSEEAL peptide, or full length PatE′4 leader peptide, the reaction was monitored after 15, 30, 60, 120, 240 and 1440 minutes. Reactions were set up in triplicate, and each sample was analyzed by MALDI TOF MS in triplicate (9 spectra recorded in total for each reaction at each time point). […] The rate of each reaction relative to the wild-type reaction (PatE′+LynD) was determined. […]

ITACITACAYDGE = test: Heterocyclization of leaderless substrate peptide ITACITACAYDGE by fused-MicD/PatD enzymes (LC-ESI-MS, MALDI-TOF-MS, HPLC-ESI-MS); assay type: biochemical; details: 20-30 μM enzyme, 100-110 μM peptide, 5 mM ATP, 5 mM MgCl2, 27° C., 16 h
Description: The Reaction was performed in 100 mM Tris pH 8.0 supplemented with 150 mM NaCl, 5 mM ATP and 5 mM MgCl2 and contained 20 μM enzyme and 100 μM peptide. The mixture was incubated at 27° C. for 16 h. The unprocessed substrate has a molecular weight of 1329.5 Da.
Reaction was performed in 50 mM Bicine pH 9.0 supplemented with 150 mM NaCl, 5 mM ATP and 5 mM MgCl2 and contained 30 μM enzyme and 110 μM peptide. The mixture was incubated at 27° C. for 16 h. The unprocessed substrate has a molecular weight of 1219.5 Da.
Each reaction contained 100 mM Tris pH 8.0, 150 mM NaCl, 5 mM ATP and 5 mM MgCl2, 20 μM of the respective enzyme and 100 μM substrate peptide, and was incubated at 27° C. for 16 h. The unprocessed substrate has a molecular weight of 1329.5 Da.
Reaction was performed in 50 mM Bicine pH 9.0 supplemented with 150 mM NaCl, 5 mM ATP and 5 mM MgCl2 and contained 30 μM enzyme and 110 μM peptide. The mixture was incubated at 27° C. for 16 h. The unprocessed substrate has a molecular weight of 1329.5 Da.
Only 1 peak (9.254 min) indicates the reaction product is only one species. […] Multiple peaks of low intensity compared with m/z=1258.5 can be attributed to noise. Product was purified from the enzyme and ATP using size exclusion chromatography (Superdex 30, GE Healthcare) and exchanged into 50 mM Bicine pH 9.0, 500 mM NaCl and 5% DMSO.

For “full-length PatE leader: full-length leader peptide from trypsin digestion of quadruple mutant PatE′4 (D2Y, K3E, K4E, R16E)”, the “acceleration of turnover of the test peptide by LynD” value (LynD) was 6.7 fold and the “heterocycles observed in test peptide with LynD plus leader in trans” value (LynD) was “both heterocycles are observed”.

In the case of “LAELSEEAL (ends and bridges not checked) [minimal leader, residues 26 to 34 of PatE]”, the “acceleration of turnover of the test peptide by LynD” value (LynD) is reported as 5.0 fold and the “heterocycles observed in test peptide with LynD plus leader in trans” value (LynD) is reported as “both heterocycles are observed”.

B1: LynD fusion: residues 21-38 of the PatE leader and an eleven residue long linker added to the N-terminus of LynD (SEQ ID NO: 39) (protein)
chain: MSHHHHHHDYDENLYFQGSQLSSQLAELSEEALGDAGAGAGAGAGAGAMQSTPLLQIQPHFHVEVIEPKQVYLLGEQANHALTGQLYCQILPLLNGQYTLEQIVEKLDGEVPPEYIDYVLERLAEKGYLTEAAPELSSEVAAFWSELGIAPPVAAEALRQPVTLTPVGNISEVTVAALTTALRDIGISVQTPTEAGSPTALNVVLTDDYLQPELAKINKQALESQQTWLLVKPVGSVLWLGPVFVPGKTGCWDCLAHRLRGNREVEASVLRQKQAQQQRNGQSGSVIGCLPTARATLPSTLQTGLQFAATEIAKWIVKYHVNATAPGTVFFPTLDGKIITLNHSILDLKSHILIKRSQCPTCGDPKILQHRGFEPLKLESRPKQFTSDGGHRGTTPEQTVQKYQHLISPVTGVVTELVRITDPANPLVHTYRAGHSFGSATSLRGLRNTLKHKSSGKGKTDSQSKASGLCEAVERYSGIFQGDEPRKRATLAELGDLAIHPEQCLCFSDGQYANRETLNEQATVAHDWIPQRFDASQAIEWTPVWSLTEQTHKYLPTALCYYHYPLPPEHRFARGDSNGNAAGNTLEEAILQGFMELVERDGVALWWYNRLRRPAVDLGSFNEPYFVQLQQFYRENDRDLWVLDLTADLGIPAFAGVSNRKTGSSERLILGFGAHLDPTIAILRAVTEVNQIGLELDKVPDENLKSDATDWLITEKLADHPYLLPDTTQPLKTAQDYPKRWSDDIYTDVMTCVNIAQQAGLETLVIDQTRPDIGLNVVKVTVPGMRHFWSRFGEGRLYDVPVKLGWLDEPLTEAQMNPTPMPF
modifications: Modified heterocyclase
In the case of B1, the “heterocycles formed in core peptide ITACITFCAYDG” value ([1]; after 2 h, LCMS) is reported as 2 and the “rate of processing both cysteines in the test peptide” value ([1]; compared with native LynD on full length PatE′ substrate) is reported as “comparable to the full length PatE′ substrate”.

B2: MicD-R16-GLEAS-5GA: fused-MicD: leader from R16 extended by GLEAS prior to the GA linker (SEQ ID NO: 43) (protein)
chain: MSHHHHHHDYDENLYFQGSRLTAGQLSSQLAELSEEALGDAGLEASGAGAGAGAGAKLMQSTPLLQIQPHFHVEVIEPKQVYLLGEQANYALTGQLYCQILPLLDGQHSREQIVEKLDGEVPSEYIDYVLDRLAEKGYLTEAAPELSSEVAAFWSELGIAPPVAAEALRQSVTLTPVGNISEVTVAALTTALRDIGISVQTPTEAGSPTALNVVLTDDYLQPELAKINKQALESQQTWLLVKPVGSVLWLGPVFVPGKTGCWDCLAHRLRGNREVEASVLQQKQAQQQRNGQSGSVIGCLPTARATLPSTLQTGLQFAATEIAKWIVKHHVKATAPGTVFFPTLDGKIITFNHTVIDLKSHVLVRRSQCPSCGDRQILHRQGFEPVKLVSRRKHFTHDGGHRAFTPEQTVQKYQHLVSPITGVVTELVRLTDPANPLVHTYKAGHAFGSATTLRGLRNTLKYKSSGKGKTDIQSRASGLCEAIERYSGIFQGDEPRKRATLAELGDLALHPESLLYFSNTQYANREELNAQGSAAAYRWIPNRFDVSQAIDWTPVWSLTEQKHKYVPTAFCYYGYPLPEEQRFCKADSNGNAAGNTLEEAILQGFLELVERDSIAMWWYNRIRRPAVDLSTFDEPYFVDLQQFYQQQNRELWVLDVTADLGIPAFAGFSRRTVGTSERISIGFGAHLDPTIAILRALTEVSQVGLELDKIPDDKLDGESKDWMLNVTVENHPWLAPDPSVPMKTASDYPKRWSDDIHTDVMNCVKTAQTAGLEVMVLDQTRPDIGLNVVKVIIPGMRTFWTRFGQGRLYDIPVKLGWLDAPLAEEELNQTNIPF
modifications: Modified heterocyclase MicroD_R16_GLEAS_5GA
With B2 the “heterocyclized species produced from ITACITACAYDGE” value (ITACITACAYDGE) was “no effect on heterocyclization”.

B3: TruD: cyanobactin heterocyclase from the trunkamide pathway, SEQ ID NO: 3 (protein)
chain: MQPTALQIKPHFHVEIIEPKQVYLLGEQGNHALTGQLYCQILPFLNGEYTREQIVEKLDGQVPEEYIDFVLSRLVEKGYLTEVAPELSLEVAAFWSELGIAPSVVAEGLKQPVTVTTAGKGIREGIVANLAAALEEAGIQVSDPRDPKAPKAGDSTAQLQVVLTDDYLQPELAAINKEALERQQPWLLVKPVGSILWLGPLFVPGETGCWHCLAQRLQGNREVEASVLQQKRALQERNGQNKNGAVSCLPTARATLPSTLQTGLQWAATEIAKWMVKRHLNAIAPGTARFPTLAGKIFTFNQTTLELKAHPLSRRPQCPTCGDRETLQRRGFEPLKLESRPKHFTSDGGHRAMTPEQTVQKYQHLIGPITGVVTELVRISDPANPLVHTYRAGHSFGSATSLRGLRNVLRHKSSGKGKTDSQSRASGLCEAIERYSGIFQGDEPRKRATLAELGDLAIHPEQCLHFSDRQYDNRESSNERATVTHDWIPQRFDASKAHDWTPVWSLTEQTHKYLPTALCYYRYPFPPEHRFCRSDSNGNAAGNTLEEAILQGFMELVERDSVCLWWYNRVSRPAVDLSSFDEPYFLQLQQFYQTQNRDLWVLDLTADLGIPAFVGVSNRKAGSSERIILGFGAHLDPTVAILRALTEVNQIGLELDKVSDESLKNDATDWLVNATLAASPYLVADASQPLKTAKDYPRRWSDDIYTDVMTCVEIAKQAGLETLVLDQTRPDIGLNVVKVIVPGMRFWSRFGSGRLYDVPVKLGWREQPLAEAQMNPTPMPF
modifications: Prochloron sp. 06037A
For B3, the “heterocycles formed in core peptide ITACITFCAYDG” value ([1]; after 16 h / overnight, 5 μM enzyme, 100 μM peptide, 37° C.) was 1.
